For one assay, the target named is T1, huCLL1-K244-Avi-Tev-His (human, UniProt Q5QGZ9 65-265).
T1 construct: extracellular domain
T1 sequence (looked up): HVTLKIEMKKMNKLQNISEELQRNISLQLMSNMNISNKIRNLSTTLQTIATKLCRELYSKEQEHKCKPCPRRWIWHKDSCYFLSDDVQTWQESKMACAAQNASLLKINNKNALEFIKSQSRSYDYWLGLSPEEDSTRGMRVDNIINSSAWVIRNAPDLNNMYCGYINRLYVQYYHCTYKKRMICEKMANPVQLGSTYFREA
The assay can be described thus: BLI. A general note: BLI is a label-free optical method that tracks binding on a fibre tip over time.

The target of a further assay is T2, huCLL1-Q244-Avi-Tev-His (human, UniProt Q5QGZ9 65-265).
T2 construct: extracellular domain; also called CLL-1 K244Q
T2 sequence (looked up): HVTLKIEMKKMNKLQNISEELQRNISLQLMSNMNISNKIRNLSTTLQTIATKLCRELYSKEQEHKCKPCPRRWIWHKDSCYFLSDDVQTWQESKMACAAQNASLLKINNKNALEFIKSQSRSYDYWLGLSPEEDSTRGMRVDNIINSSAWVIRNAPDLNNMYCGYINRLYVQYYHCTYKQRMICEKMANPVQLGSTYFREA
Kind of assay: BLI.

B1: Polypeptide No. 155 (scFv, V domains shown)
VH: QVQLVQSGAEVKKPGASVKVSCKASGYTFTSYDINWVRQAPGQGLEWMGWMNPSSGDSGYAQKFQGRVTMTRDTSTSTVYMELSSLRSEDTAVYYCARPERSDAFDIWGQGTTVTVSS
VL: DIQMTQSPSSLSASVGDRVTITCRASQSIGPWLAWYQQKPGKAPKLLIYDASNLEAGVPSRFSGSGSGTDFTLTISSLQPEDFATYYCQQSFSSPLTFGGGTKVEIKR
notes: scFv
In the case of B1, the binding result in the assay with huCLL1-K244-Avi-Tev-His and with huCLL1-Q244-Avi-Tev-His was “binds” each time.

B2: Polypeptide No. 157 (scFv, V domains shown)
VH: QVQLVQSGAEVKKPGASVKVSCKASGYTFSDYYIHWVRQAPGQGLEWMGIINPSGGSTSYAQKFQGRVTMTRDTSTSTVYMELSSLRSEDTAVYYCARGMTDDAFDIWGQGTMVTVSS
VL: DIQMTQSPSSLSASVGDRVTITCRASQGISSWLAWYQQKPGKAPKLLIYDASNLETGVPSRFSGSGSGTDFTLTISSLQPEDFATYYCQQTYAIPLTFGGGTKLEIKR
notes: scFv
As to B2, the binding result in the assay with huCLL1-K244-Avi-Tev-His and with huCLL1-Q244-Avi-Tev-His was “binds” throughout.

B3: Polypeptide No. 144 (scFv, V domains shown)
VH: QVQLVQSGAEVKKPGASVKVSCKASGYTFTAYYMHWVRQAPGQGLEWMGIIDPSGGSTSYAQQFQGRVTMTRDTSTSTVYMELSSLRSEDTAVYYCARGDYGDYHTLWGQGTLVTVSS
VL: DIQMTQSPSSLSASVGDRVTITCRASQGISSYLAWYQQKPGKAPKLLIYDASSLQSGVPSRFSGSGSGTDFTLTISSLQPEDFATYYCQQSYSTPITFGPGTKVDIKR
notes: scFv
As to B3, the binding result with huCLL1-K244-Avi-Tev-His and in the assay with huCLL1-Q244-Avi-Tev-His was “binds” throughout.

B4: Polypeptide No. 160 (scFv, V domains shown)
VH: QVQLVQSGAEVKKPGASVKVSCKASGGTFTSYDINWVRQAPGQGLEWMGWINPHSGGTNYAQKFQGRVTMTRDTSTSTVYMELSSLRSEDTAVYYCARLVGGDAFDIWGQGTMVTVSS
VL: DIQMTQSPSSLSASVGDRVTITCRASQSISSWLAWYQQKPGKAPKLLIYAASSLQGGVPSRFSGSGSGTDFTLTISSLQPEDFATYYCQQGYTTPLTFGPGTKVDIKR
notes: scFv
For B4, the binding result with huCLL1-K244-Avi-Tev-His and with huCLL1-Q244-Avi-Tev-His was “binds” each time.

B5: Polypeptide No. 154 (scFv, V domains shown)
VH: QVQLVQSGAEVKKPGASVKVSCKASGGTFSSYGVTWVRQAPGQGLEWMGWINPNTGGTDYAQNFQGRVTMTRDTSTSTVYMELSSLRSEDTAVYYCAGEVGVGGYDAFDIWGQGTTVTVSS
VL: DIQMTQSPSSLSASVGDRVTITCRASQGISNWLAWYQQKPGKAPKLLIYAASSLQSGVPSRFSGSGSGTDFTLTISSLQPEDFATYYCQQSYSIPLTFGGGTKVEIKR
notes: scFv
Turning to B5, the binding result in the assay with huCLL1-K244-Avi-Tev-His and with huCLL1-Q244-Avi-Tev-His was “binds” each time.

B6: Polypeptide No. 148 (scFv, V domains shown)
VH: QVQLVQSGAEVKKPGASVKVSCKASGGTFTTYGISWVRQAPGQGLEWMGWMNPFSDNTDYAQNFQGRVTMTRDTSTSTVYMELSSLRSEDTAVYYCARGTGDDAFDIWGQGTMVTVSS
VL: DIQMTQSPSSLSASVGDRVTITCRASQSISTWVAWYQQKPGKAPKLLIYAASSLQSGVPSRFSGSGSGTDFTLTISSLQPEDFATYYCQQSFSIPLTFGQGTKVEIKR
notes: scFv
In the case of B6, the binding result with huCLL1-K244-Avi-Tev-His and in the assay with huCLL1-Q244-Avi-Tev-His was “binds” in each case.

B7: Polypeptide No. 151 (scFv, V domains shown)
VH: QVQLVQSGAEVKKPGASVKVSCKASGYTFTDYYIHWVRQAPGQGLEWMGWMNPNSGNTGYAQKFQGRVTMTRDTSTSTVYMELSSLRSEDTAVYYCARVDTADYMDVWGKGTLVTVSS
VL: DIQMTQSPSSLSASVGDRVTITCRASQGISSWLAWYQQKPGKAPKLLIYDASNLQTGVPSRFSGSGSGTDFTLTISSLQPEDFATYYCQQSYSTPLTFGQGTKVEIKR
notes: scFv
Consider B7, for which the binding result in the assay with huCLL1-K244-Avi-Tev-His and with huCLL1-Q244-Avi-Tev-His was “binds” throughout.

B8: Polypeptide No. 153 (scFv, V domains shown)
VH: QVQLVQSGAEVKKPGASVKVSCKASGGAFSSYALSWVRQAPGQGLEWMGWMNPNSGNTGYAQKFQGRVTMTRDTSTSTVYMELSSLRSEDTAVYYCAADWMIGGDAFDIWGQGTTVTVSS
VL: DIQMTQSPSSLSASVGDRVTITCRASQSISSWLAWYQQKPGKAPKLLIYDASRLQSGVPSRFSGSGSGTDFTLTISSLQPEDFATYYCQQSYGIPLTFGGGTKVEIKR
notes: scFv
Take B8: the binding result in the assay with huCLL1-K244-Avi-Tev-His and in the assay with huCLL1-Q244-Avi-Tev-His was “binds” each time.

B9: Polypeptide No. 156 (scFv, V domains shown)
VH: QVQLVQSGAEVKKPGASVKVSCKASGYTFTGYFIHWVRQAPGQGLEWMGWMNPNSGNTGYAQKFQGRVTMTRDTSTSTVYMELSSLRSEDTAVYYCARGDYADWFDPWGQGTLVTVSS
VL: DIQMTQSPSSLSASVGDRVTITCRASQSISTWLAWYQQKPGKAPKLLIYDAFTLETGVPSRFSGSGSGTDFTLTISSLQPEDFATYYCQQSYSTPLTFGQGTKVEIKR
notes: scFv
As to B9, the binding result in the assay with huCLL1-K244-Avi-Tev-His and with huCLL1-Q244-Avi-Tev-His was “binds” in each case.

B10: Polypeptide No. 145 (scFv, V domains shown)
VH: QVQLVQSGAEVKKPGASVKVSCKASGGTFSTSYMHWVRQAPGQGLEWMGWIHPDDGNTDYAPKFQGRVTMTRDTSTSTVYMELSSLRSEDTAVYYCARDLGDYDTFDIWGQGTMVTVSS
VL: DIQMTQSPSSLSASVGDRVTITCRVSQGISSYLNWYQQKPGKAPKLLIYDASNLQAGVPSRFSGSGSGTDFTLTISSLQPEDFATYYCQQSYSTPPTFGQGTKVEIKR
notes: scFv
For B10, the binding result in the assay with huCLL1-K244-Avi-Tev-His and in the assay with huCLL1-Q244-Avi-Tev-His was “binds” in each case.

B11: Polypeptide No. 152 (scFv, V domains shown)
VH: QVQLVQSGAEVKKPGASVKVSCKASGGTFSTNAISWVRQAPGQGLEWMGWMNPNSGNTGYAQKFQGRVTMTRDTSTSTVYMELSSLRSEDTAVYYCAKEDYGGNFDYWGQGTLVTVSS
VL: DIQMTQSPSSLSASVGDRVTITCRASQSIGPWLAWYQQKPGKAPKLLIYDASNLQAGVPSRFSGSGSGTDFTLTISSLQPEDFATYYCQQSHSLPLTFGPGTKVDIKR
notes: scFv
With B11, the binding result in the assay with huCLL1-K244-Avi-Tev-His and in the assay with huCLL1-Q244-Avi-Tev-His was “binds” in each case.

B12: Polypeptide No. 158 (scFv, V domains shown)
VH: QVQLVQSGAEVKKPGASVKVSCKASGDSFSSYGISWVRQAPGQGLEWMGWINPKSGATTSAQKFQGRVTMTRDTSTSTVYMELSSLRSEDTAVYYCARSTAFDAFDIWGQGTTVTVSS
VL: DIQMTQSPSSLSASVGDRVTITCRASQSISSWLAWYQQKPGKAPKLLIYDASNLETGVPSRFSGSGSGTDFTLTISSLQPEDFATYYCQQSYSTPLTFGQGTKVEIKR
notes: scFv
On to B12, for which the binding result with huCLL1-K244-Avi-Tev-His and in the assay with huCLL1-Q244-Avi-Tev-His was “binds” each time.

B13: Polypeptide No. 149 (scFv, V domains shown)
VH: QVQLVQSGAEVKKPGASVKVSCKASGYTFTSYDINWVRQAPGQGLEWMGWMNPNSGNTGYAQKFQGRVTMTRDTSTSTVYMELSSLRSEDTAVYYCARELEGEWFDPWGQGTLVTVSS
VL: DIQMTQSPSSLSASVGDRVTITCRASQSISSYLNWYQQKPGKAPKLLIYSASNLQSGVPSRFSGSGSGTDFTLTISSLQPEDFATYYCQQAISFPLTFGQGTKVEIKR
notes: scFv
For B13, the binding result with huCLL1-K244-Avi-Tev-His and in the assay with huCLL1-Q244-Avi-Tev-His was “binds” throughout.

B14: Polypeptide No. 146 (scFv, V domains shown)
VH: QVQLVQSGAEVKKPGASVKVSCKASGYTFSGHYMHWVRQAPGQGLEWMGWIDPNSGGTNYAQKFQGRVTMTRDTSTSTVYMELSSLRSEDTAVYYCARDYPFYGDNDAFDIWGQGTTVTVSS
VL: DIQMTQSPSSLSASVGDRVTITCRVSQGISSYLNWYQQKPGKAPKLLIYEASSLESGVPSRFSGSGSGTDFTLTISSLQPEDFATYYCQQSYSIPFTFGPGTKVDIKR
notes: scFv
For the molecule B14, the binding result with huCLL1-K244-Avi-Tev-His and with huCLL1-Q244-Avi-Tev-His was “binds” in each case.

B15: Polypeptide No. 159 (scFv, V domains shown)
VH: QVQLVQSGAEVKKPGASVKVSCKASGYSFTANYIHWVRQAPGQGLEWMGIINPSGGSTSYAQKFQGRVTMTRDTSTSTVYMELSSLRSEDTAVYYCARGNYGDYVEDWGQGTLVTVSS
VL: DIQMTQSPSSLSASVGDRVTITCRASQSISSWLAWYQQKPGKAPKLLIYDASNLETGVPSRFSGSGSGTDFTLTISSLQPEDFATYYCQQSYGTPLTFGGGTKVEIKR
notes: scFv
For B15, the binding result with huCLL1-K244-Avi-Tev-His and in the assay with huCLL1-Q244-Avi-Tev-His was “binds” in each case.

B16: Polypeptide No. 147 (scFv, V domains shown)
VH: QVQLVQSGAEVKKPGASVKVSCKASGYTFTSYHIHWVRQAPGQGLEWVGGIIPSGGSTSYAQKFQGRVTMTRDTSTSTVYMELSSLRSEDTAVYYCARGTNDDHYDYWGQGTLVTVSS
VL: DIQMTQSPSSLSASVGDRVTITCRASQGISNYLAWYQQKPGKAPKLLIYDASNLETGVPSRFSGSGSGTDFTLTISSLQPEDFATYYCQQSYSTPLTFGGGTKVEIKR
notes: scFv
For the molecule B16, the binding result with huCLL1-K244-Avi-Tev-His and in the assay with huCLL1-Q244-Avi-Tev-His was “binds” each time.

B17: Polypeptide No. 177 (scFv, V domains shown)
VH: QVQLVQSGAEVKKPGASVKVSCKASGYTFTSYYMHWVRQAPGQGLEWMGWMNPNSGNTGYAQKFQGRVTMTRDTSTSTVYMELSSLRSEDTAVYYCARSTYSDSFDYWGQGTLVTVSS
VL: DIQMTQSPSSLSASVGDRVTITCRASQSISNWLAWYQQKPGKAPKLLIYDASNLETGVPSRFSGSGSGTDFTLTISSLQPEDFATYYCQQSYSTPLTFGQGTKLEIKR
notes: scFv
As for B17, the binding result with huCLL1-K244-Avi-Tev-His and in the assay with huCLL1-Q244-Avi-Tev-His was “binds” each time.

B18: Polypeptide No. 150 (scFv, V domains shown)
VH: QVQLVQSGAEVKKPGASVKVSCKASGYIFTSQYIHWVRQAPGQGLEWMGWINPNSGGTNYAQKFQGRVTMTRDTSTSTVYMELSSLRSEDTAVYYCARDPWGAYGGDAFDIWGQGTMVTVSS
VL: DIQMTQSPSSLSASVGDRVTITCRASQGISNNLNWYQQKPGKAPKLLIYDASHLDTGVPSRFSGSGSGTDFTLTISSLQPEDFATYYCQQNYSPPPTFGQGTRLEIKR
notes: scFv
B18: the binding result with huCLL1-K244-Avi-Tev-His and with huCLL1-Q244-Avi-Tev-His was “binds” in each case.

Values taken from patent publication US20240101668A1 (WUGEN, published 2024).
